# According to US20090053750A1 (CELL GENESYS, published 2009):
# Target: T1, class I MHC receptor HLA-A2 on T2 cells (human)
# T1 construct: detected on the cell surface with a mouse anti-human HLA-A2 monoclonal antibody and goat anti-mouse IgG F(ab')2-FITC; also called HLA-A2 receptor; HLA-A2 class I MHC
# Assay: T2 cells, anti-HLA-A2 flow cytometry after brefeldin A; Average; 4 hr
# Procedure: (§1) Following overnight incubation, the cells were washed and stained with mouse anti-human HLA-A2 monoclonal antibody for 15 min at 4° C.
# (§2) After washing, the cells were incubated with goat anti-mouse IgG (F(ab′)₂)-FITC (Sigma, St. Louis, Mo.) for 15 min at 4° C. The cells were washed and analyzed on a FACSort flow cytometer with CellQuest v2.1 software (Becton-Dickson, San Jose, Calif.). […] Up-regulation of HLA-A2 expression correlates with binding of HLA-A2 by the filamin-B peptides.
# (§3) To test the stability of the interaction between the peptides and HLA-A2, fluorescence was monitored for several hours following the addition of brefeldin A to the assay.
row,fluorescence index,Binder
1,1.28 F.I.,SLQESGLKV [Filamin B peptide #4]
2,3.79 F.I.,GLAPLEVRV [Filamin B peptide #3]
3,2.67 F.I.,LILGLVWTL [Filamin B peptide #1]
4,1.16 F.I.,KLILGLVWT [Filamin B peptide #7]
5,1.47 F.I.,GQGDVMVFV [Filamin B peptide #6]

# Target: T1, class I MHC receptor HLA-A2 on T2 cells
# Assay: T2 cells pulsed with peptide + b2m, anti-HLA-A2 flow cytometry; Average
# Procedure: as §1, §2
row,fluorescence index,Binder
1,1.79,SLQESGLKV [Filamin B peptide #4]
2,3.93,GLAPLEVRV [Filamin B peptide #3]
3,2.82,LILGLVWTL [Filamin B peptide #1]
4,1.32,KLILGLVWT [Filamin B peptide #7]
5,2.32,GQGDVMVFV [Filamin B peptide #6]

# Target: T1, class I MHC receptor HLA-A2 on T2 cells
# Assay: T2 cells, anti-HLA-A2 flow cytometry after brefeldin A; Assay #1; 2 hr
# Procedure: as §1, §2, §3
row,fluorescence index,Binder
1,1.43 F.I.,SLQESGLKV [Filamin B peptide #4]
2,4.3 F.I.,GLAPLEVRV [Filamin B peptide #3]
3,3.17 F.I.,LILGLVWTL [Filamin B peptide #1]
4,1.24 F.I.,KLILGLVWT [Filamin B peptide #7]
5,1.74 F.I.,GQGDVMVFV [Filamin B peptide #6]

# Target: T1, class I MHC receptor HLA-A2 on T2 cells
# Assay: T2 cells, anti-HLA-A2 flow cytometry after brefeldin A; Assay #1; 0 hr
# Procedure: as §1, §2, §3
row,fluorescence index,Binder
1,1.96 F.I.,SLQESGLKV [Filamin B peptide #4]
2,4.21 F.I.,GLAPLEVRV [Filamin B peptide #3]
3,3.46 F.I.,LILGLVWTL [Filamin B peptide #1]
4,1.38 F.I.,KLILGLVWT [Filamin B peptide #7]
5,2.67 F.I.,GQGDVMVFV [Filamin B peptide #6]

# Target: T1, class I MHC receptor HLA-A2 on T2 cells
# Assay: T2 cells pulsed with peptide + b2m, anti-HLA-A2 flow cytometry; Assay #2
# Procedure: as §1, §2
row,fluorescence index,Binder
1,1.61,SLQESGLKV [Filamin B peptide #4]
2,3.64,GLAPLEVRV [Filamin B peptide #3]
3,2.17,LILGLVWTL [Filamin B peptide #1]
4,1.25,KLILGLVWT [Filamin B peptide #7]
5,1.96,GQGDVMVFV [Filamin B peptide #6]

# Target: T1, class I MHC receptor HLA-A2 on T2 cells
# Assay: T2 cells, anti-HLA-A2 flow cytometry after brefeldin A; Average; 6 hr
# Procedure: as §1, §2, §3
row,fluorescence index,Binder
1,1.09 F.I.,SLQESGLKV [Filamin B peptide #4]
2,3.61 F.I.,GLAPLEVRV [Filamin B peptide #3]
3,2.58 F.I.,LILGLVWTL [Filamin B peptide #1]
4,1.05 F.I.,KLILGLVWT [Filamin B peptide #7]
5,1.12 F.I.,GQGDVMVFV [Filamin B peptide #6]

# Target: T1, class I MHC receptor HLA-A2 on T2 cells
# Assay: T2 cells pulsed with peptide + b2m, anti-HLA-A2 flow cytometry; Assay #1
# Procedure: as §1, §2
row,fluorescence index,Binder
1,1.96,SLQESGLKV [Filamin B peptide #4]
2,4.21,GLAPLEVRV [Filamin B peptide #3]
3,3.46,LILGLVWTL [Filamin B peptide #1]
4,1.38,KLILGLVWT [Filamin B peptide #7]
5,2.67,GQGDVMVFV [Filamin B peptide #6]

# Target: T1, class I MHC receptor HLA-A2 on T2 cells
# Assay: T2 cells, anti-HLA-A2 flow cytometry after brefeldin A; Assay #2; 6 hr
# Procedure: as §1, §2, §3
row,fluorescence index,Binder
1,1 F.I.,SLQESGLKV [Filamin B peptide #4]
2,2.94 F.I.,GLAPLEVRV [Filamin B peptide #3]
3,1.83 F.I.,LILGLVWTL [Filamin B peptide #1]
4,1 F.I.,KLILGLVWT [Filamin B peptide #7]
5,1 F.I.,GQGDVMVFV [Filamin B peptide #6]

# Target: T1, class I MHC receptor HLA-A2 on T2 cells
# Assay: T2 cells, anti-HLA-A2 flow cytometry after brefeldin A; Average; 2 hr
# Procedure: as §1, §2, §3
row,fluorescence index,Binder
1,1.4 F.I.,SLQESGLKV [Filamin B peptide #4]
2,3.82 F.I.,GLAPLEVRV [Filamin B peptide #3]
3,2.67 F.I.,LILGLVWTL [Filamin B peptide #1]
4,1.16 F.I.,KLILGLVWT [Filamin B peptide #7]
5,1.67 F.I.,GQGDVMVFV [Filamin B peptide #6]

# Target: T1, class I MHC receptor HLA-A2 on T2 cells
# Assay: T2 cells, anti-HLA-A2 flow cytometry after brefeldin A; Average; 18 hr
# Procedure: as §1, §2, §3
row,fluorescence index,Binder
1,1.05 F.I.,SLQESGLKV [Filamin B peptide #4]
2,2.6 F.I.,GLAPLEVRV [Filamin B peptide #3]
3,1.9 F.I.,LILGLVWTL [Filamin B peptide #1]
4,1.13 F.I.,KLILGLVWT [Filamin B peptide #7]
5,1.05 F.I.,GQGDVMVFV [Filamin B peptide #6]

# Target: T1, class I MHC receptor HLA-A2 on T2 cells
# Assay: T2 cells, anti-HLA-A2 flow cytometry after brefeldin A; Assay #2; 8 hr
# Procedure: as §1, §2, §3
row,fluorescence index,Binder
1,1 F.I.,SLQESGLKV [Filamin B peptide #4]
2,2.89 F.I.,GLAPLEVRV [Filamin B peptide #3]
3,1.57 F.I.,LILGLVWTL [Filamin B peptide #1]
4,1 F.I.,KLILGLVWT [Filamin B peptide #7]
5,1 F.I.,GQGDVMVFV [Filamin B peptide #6]

# Target: T1, class I MHC receptor HLA-A2 on T2 cells
# Assay: T2 cells, anti-HLA-A2 flow cytometry after brefeldin A; Average; 8 hr
# Procedure: as §1, §2, §3
row,fluorescence index,Binder
1,1.05 F.I.,SLQESGLKV [Filamin B peptide #4]
2,3.45 F.I.,GLAPLEVRV [Filamin B peptide #3]
3,2.4 F.I.,LILGLVWTL [Filamin B peptide #1]
4,1.05 F.I.,KLILGLVWT [Filamin B peptide #7]
5,1.05 F.I.,GQGDVMVFV [Filamin B peptide #6]

# Target: T1, class I MHC receptor HLA-A2 on T2 cells
# Assay: T2 cells, anti-HLA-A2 flow cytometry after brefeldin A; Assay #1; 18 hr
# Procedure: as §1, §2, §3
row,fluorescence index,Binder
1,1.1 F.I.,SLQESGLKV [Filamin B peptide #4]
2,3.1 F.I.,GLAPLEVRV [Filamin B peptide #3]
3,2.45 F.I.,LILGLVWTL [Filamin B peptide #1]
4,1.25 F.I.,KLILGLVWT [Filamin B peptide #7]
5,1.1 F.I.,GQGDVMVFV [Filamin B peptide #6]

# Target: T1, class I MHC receptor HLA-A2 on T2 cells
# Assay: T2 cells, anti-HLA-A2 flow cytometry after brefeldin A; Average; 0 hr
# Procedure: as §1, §2, §3
row,fluorescence index,Binder
1,1.79 F.I.,SLQESGLKV [Filamin B peptide #4]
2,3.93 F.I.,GLAPLEVRV [Filamin B peptide #3]
3,2.82 F.I.,LILGLVWTL [Filamin B peptide #1]
4,1.32 F.I.,KLILGLVWT [Filamin B peptide #7]
5,2.32 F.I.,GQGDVMVFV [Filamin B peptide #6]

# Target: T1, class I MHC receptor HLA-A2 on T2 cells
# Assay: T2 cells, anti-HLA-A2 flow cytometry after brefeldin A; Assay #1; 8 hr
# Procedure: as §1, §2, §3
row,fluorescence index,Binder
1,1.09 F.I.,SLQESGLKV [Filamin B peptide #4]
2,4.01 F.I.,GLAPLEVRV [Filamin B peptide #3]
3,3.22 F.I.,LILGLVWTL [Filamin B peptide #1]
4,1.09 F.I.,KLILGLVWT [Filamin B peptide #7]
5,1.09 F.I.,GQGDVMVFV [Filamin B peptide #6]

# Target: T1, class I MHC receptor HLA-A2 on T2 cells
# Assay: T2 cells, anti-HLA-A2 flow cytometry after brefeldin A; Assay #2; 4 hr
# Procedure: as §1, §2, §3
row,fluorescence index,Binder
1,1.13 F.I.,SLQESGLKV [Filamin B peptide #4]
2,3.35 F.I.,GLAPLEVRV [Filamin B peptide #3]
3,2.16 F.I.,LILGLVWTL [Filamin B peptide #1]
4,1.1 F.I.,KLILGLVWT [Filamin B peptide #7]
5,1.29 F.I.,GQGDVMVFV [Filamin B peptide #6]

# Target: T1, class I MHC receptor HLA-A2 on T2 cells
# Assay: T2 cells, anti-HLA-A2 flow cytometry after brefeldin A; Assay #2; 2 hr
# Procedure: as §1, §2, §3
row,fluorescence index,Binder
1,1.37 F.I.,SLQESGLKV [Filamin B peptide #4]
2,3.33 F.I.,GLAPLEVRV [Filamin B peptide #3]
3,2.17 F.I.,LILGLVWTL [Filamin B peptide #1]
4,1.07 F.I.,KLILGLVWT [Filamin B peptide #7]
5,1.6 F.I.,GQGDVMVFV [Filamin B peptide #6]

# Target: T1, class I MHC receptor HLA-A2 on T2 cells
# Assay: T2 cells, anti-HLA-A2 flow cytometry after brefeldin A; Assay #1; 6 hr
# Procedure: as §1, §2, §3
row,fluorescence index,Binder
1,1.18 F.I.,SLQESGLKV [Filamin B peptide #4]
2,4.27 F.I.,GLAPLEVRV [Filamin B peptide #3]
3,3.32 F.I.,LILGLVWTL [Filamin B peptide #1]
4,1.09 F.I.,KLILGLVWT [Filamin B peptide #7]
5,1.23 F.I.,GQGDVMVFV [Filamin B peptide #6]

# Target: T1, class I MHC receptor HLA-A2 on T2 cells
# Assay: T2 cells, anti-HLA-A2 flow cytometry after brefeldin A; Assay #1; 4 hr
# Procedure: as §1, §2, §3
row,fluorescence index,Binder
1,1.43 F.I.,SLQESGLKV [Filamin B peptide #4]
2,4.22 F.I.,GLAPLEVRV [Filamin B peptide #3]
3,3.17 F.I.,LILGLVWTL [Filamin B peptide #1]
4,1.22 F.I.,KLILGLVWT [Filamin B peptide #7]
5,1.65 F.I.,GQGDVMVFV [Filamin B peptide #6]

# Target: T1, class I MHC receptor HLA-A2 on T2 cells
# Assay: T2 cells, anti-HLA-A2 flow cytometry after brefeldin A; Assay #2; 18 hr
# Procedure: as §1, §2, §3
row,fluorescence index,Binder
1,1 F.I.,SLQESGLKV [Filamin B peptide #4]
2,2.1 F.I.,GLAPLEVRV [Filamin B peptide #3]
3,1.35 F.I.,LILGLVWTL [Filamin B peptide #1]
4,1 F.I.,KLILGLVWT [Filamin B peptide #7]
5,1 F.I.,GQGDVMVFV [Filamin B peptide #6]

# Target: T1, class I MHC receptor HLA-A2 on T2 cells
# Assay: T2 cells, anti-HLA-A2 flow cytometry after brefeldin A; Assay #2; 0 hr
# Procedure: as §1, §2, §3
row,fluorescence index,Binder
1,1.61 F.I.,SLQESGLKV [Filamin B peptide #4]
2,3.64 F.I.,GLAPLEVRV [Filamin B peptide #3]
3,2.17 F.I.,LILGLVWTL [Filamin B peptide #1]
4,1.25 F.I.,KLILGLVWT [Filamin B peptide #7]
5,1.96 F.I.,GQGDVMVFV [Filamin B peptide #6]
